B1: YFP-Parkin: YFP-tagged Parkin E3 ligase expressed from a transfected vector (protein, UniProt O60260 1-465, looked up)
E3 ubiquitin-protein ligase …: MIVFVRFNSSHGFPVEVDSDTSIFQLKEVVAKRQGVPADQLRVIFAGKELRNDWTVQNCDLDQQSIVHIVQRPWRKGQEMNATGGDDPRNAAGGCEREPQSLTRVDLSSSVLPGDSVGLAVILHTDSRKDSPPAGSPAGRSIYNSFYVYCKGPCQRVQPGKLRVQCSTCRQATLTLTQGPSCWDDVLIPNRMSGECQSPHCPGTSAEFFFKCGAHPTSDKETSVALHLIATNSRNITCITCTDVRSPVLVFQCNSRHVICLDCFHLYCVTRLNDRQFVHDPQLGYSLPCVAGCPNSLIKELHHFRILGEEQYNRYQQYGAEECVLQMGGVLCPRPGCGAGLLPEPDQRKVTCEGGNGLGCGFAFCRECKEAYHEGECSAVFEASGTTTQAYRVDERAAEQARWEAASKETIKKTTKPCPRCHVPVEKNGGCMHMKCPQPQCRLEWCWNCGCEWNRVCMGDHWFDV
modifications: YFP fusion
notes: YFP-tagged Parkin E3 ligase expressed from a transfected vector

Key:
PINK1-V5 = PINK1-V5 accumulation in cortical neurons, immunoblot; type: cell-based, rat; conditions: 1 μM CCCP, 6 hours
Text: HeLa YFP-Parkin, E18 Rat cortical neurons, PINK1^+/+ SV40 transformed MEFs cells, PINK1^−/− SV40 transformed MEF, M17 neuroblastoma control shRNA, M17 neuroblastoma PINK1, Mfn1/2^−/− MEF, and Parl^−/− MEF cell lines have been described previously (Narendra (2008) J Cell Biol 183: 795-803). PINK1^+/+ and PINK1^−/− primary MEFs were isolated from embryos using a standard protocol (Gautier (2008) Proc Natl Acad Sci USA 105: 11364-11369). Parkin^+/+ and Parkin^−/− transformed MEFs were created by isolation of primary cells from embryos of B6.129S4-Park2^tm1Shn/J mice (Jackson Labs), using a standard protocol (Gautier (2008) Proc Natl Acad Sci USA 105: 11364-11369), followed by retroviral transduction of SV40 (Applied Biological Materials, Inc.). YFP-Parkin, YFP-Parkin mutants, mCherry-Parkin, PINK1-YFP, PINK1 KD-YFP, PINK1 Δ1-110-YFP, and Opa3-PINK1 Δ1-110-YFP are in C1 or N1 Clontech vectors. PINK1WT-V5, PINK1 KD-V5, and PINK1 Δ1-156-V5 are in pDest40 vector (Invitrogen). PINK1 patient mutations are in the pLenti-V5 vector (Invitrogen). PINK1-myc is in a pCMBTNT vector (Promega). The PARL shRNA construct targeting (5′ […] 3′) is in the pSuper-GFP vector. […]

HeLa cells [1] = test: PINK1-YFP imaging and colocalization in HeLa cells; type: cell-based; conditions: live imaging, 10 μM CCCP
Procedure: (§1) Confocal microscopy of fixed samples, scoring of Parkin recruitment and Parkininduced mitophagy, and live cell imaging were performed as described previously (Narendra (2008) J Cell Biol 183: 795-803). Experiments in Mfn1/2 null cells were performed as described previously with minor modifications.
as §1, with “Parkin-induced” for “Parkininduced”, “imageing” for “imaging”, “modifications described in the supplemental methods (Narendra (2008) J Cell Biol 183: 795-803).” for “modifications.”

COXICA65 cybrid cells = test: COXI immunostaining of cybrid cells; type: cell-based, human; conditions: Parkin-enriched cybrid cells, 67 days without selection, cells without detectable YFP-Parkin
Procedure: Cells for fluorescence microscopy were transfected with Fugene 6 (Roche). Cells were fixed with 4% paraformaldehyde (EMS) in PBS, treated with 0.15% of TritonX-100 and blocked with 10% BSA. Cells were incubated with rabbit anti-Tom20 (1:1000) (Santa Cruz), mouse anti-FLAG (Invitrogen) or mouse anti-COXI (Invitrogen) for 2 hs, washed with 10% BSA for 3 times, incubated with AlexaFluor Goat anti-rabbit or anti-mouse IgG (1:500)(Invitrogen) for 1 h and washed with PBS for 10 minutes 2 times. The samples were stored in PBS and imaged on a Zeiss LSM510 microscope (63×/1.4 Oil DIC Plan Apo objective, 40×/1.3 Oil Plan Neo-Fluar objective).

HeLa cells [2] = test: Survival in glucose or galactose media after CCCP; type: cell-based
Text: To further confirm that cells had lost their mitochondria, their growth in glucose media or galactose media, which lacked glucose, was examined. […] In contrast, the majority of control cells, which had been treated with CCCP but lacked Parkin, retained their mitochondria and could survive in both glucose and galactose media for at least 4 days (FIG. 4H).
Cultured cells seeded in borosilicate chamber slides (Thermo Fisher Scientific) were transfected or cotransfected with YFP-Parkin, ECFP-Parkin, mCherry-Parkin, DsRed-Mito (Clontech Laboratories, Inc.), pcDNA3.1 (Invitrogen), vMIA, and/or Drp1K38A constructs using Fugene 6 (Roche). Parkin-myc was a gift from M. Cookson (National Institutes of Health, Bethesda, Md.). Cells were fixed 12-24 hours after transfection with 4% paraformaldehyde in PBS. Cells were stained with following primary antibodies: mouse monoclonal cytochrome c (BD), rabbit polyclonal Tom20 (Santa Cruz Biotechnology, Inc.), mouse monoclonal Parkin PRK8 (Santa Cruz Biotechnology, Inc.), rabbit polyclonal PMP70 (Invitrogen), and/or mouse monoclonal TRAP1 (Abcam); and with the following secondary antibodies: mouse and/or rabbit Alexa 488, 594, and 633 (Invitrogen). For assessment of mitochondrial membrane potential, cells were pulsed with 50 nM Mito-Tracker red (Invitrogen) for 15 min, washed, and incubated for an additional 10 minutes before fixation or imaging. […]

Molecule	PINK1-V5 level (PINK1-V5)	time when increase of PINK1-YFP expression was first detectable (HeLa cells [1]) [min]	COXI completely negative cells (COXICA65 cybrid cells) [%]	COXI positive cells (COXICA65 cybrid cells)	cells without detectable mitochondria able to survive (HeLa cells [2]; 4 days in galactose media after 10 μM CCCP 72 hours) [%]	cells without detectable mitochondria able to survive (HeLa cells [2]; 4 days in glucose media after 10 μM CCCP 72 hours) [%]
N#CC(C#N)=NNc1cccc(Cl)c1 [CCCP, carbonyl cyanide m-chlorophenylhydrazone]	increases	1 to 5				
B1			27	Approximately 73%	0	72.8

From patent publication US20120277286A1, “COMPOSITIONS AND METHODS FOR THE TREATMENT OR PREVENTION OF MITOCHONDRIAL DISEASES” (The Government of the USA, as represented by the Secretary, …, priority 2009, published 2012)
